Measurements published in patent US20240209061A1, “FUSION PROTEINS AND USES THEREOF” (Pfizer Inc., priority 2020, published 2024).

Tests used:
[1] = Thermal stability by Differential Scanning calorimetry (DSC); assay type: physicochemical
Experimental: There is a correlation between the thermal stability of a protein with the overall stability of the protein. Enhanced thermal stability often provides improved manufacturability and longer shelf life/stability. Thermal stability of variant CD80-Fc fusion proteins was assessed by Differential Scanning calorimetry (DSC). Variant CD80-Fc fusion proteins were analyzed using a MicroCal VP-DSC instrument. […] Tables 8-10 show the first thermal transition temperature (Tm1) of CD80-Fc fusion proteins and the enhanced thermal stability of variant CD80-Fc fusion proteins compared to CD80-WT-Fc fusion proteins.

[2] = AC-SINS self-interaction assay; assay type: physicochemical
Experimental: Variant CD80-Fc fusion proteins were assessed by measuring non-specific binding using a DNA- and insulin-binding ELISA (Avery et al., MAbs. 2018 February/March; 10(2): 244-255) and for self-interaction in an AC-SINS assay (affinity-capture self-interaction nanoparticle spectroscopy; Liu et al., 2014, mAbs 6:483-92). DNA- and insulin-binding scores were calculated as the signal ratio of the ELISA signal of the CD80-Fc fusion protein at 10 μg/ml to the ELISA signal in the absence of the Fc-fusion protein (buffer only). For the AC-SINS assay, proteins are captured by anti-human Fc antibodies coated on gold nanoparticles. […] The score ranges obtained from these in vitro assays correlate well with in vivo clearance using huFcRn transgenic (Tg32) mouse. Therapeutic proteins with high scores are at high risk for rapid clearance and unfavorable PK and therapeutics that score low are at low risk and favorable PK.

[3] = tested on: Renca murine renal carcinoma tumor cells; experiment: Renca murine renal carcinoma model; assay type: in vivo, mouse; conditions: for % tumor growth inhibition: Day 18; for # IFNγ-producing spots (splenic tumor-reactive T cells): spleen Day 9, average of n = 4 mice; for CD8^+ T cell infiltrates (% CD45): Renca, ~1 week after first dose, n=4
Experimental: Renca murine renal carcinoma tumor cells (1 million) were subcutaneously implanted in the hind flank of female Balb/c mice. Five days after tumor implantation, PBS vehicle control or variant CD80-Fc fusion proteins were dosed intravenously at 0.3 and 1 mg/kg (on Day 0 and Day 3) or 3 mg/kg (Day 0, Day 3 and Day 6). Tumor volume was determined by caliper measurements obtained in 2 dimensions and calculated as width^2×length/2. Error bars are depicted as ±SEM.
Pharmacodynamic (PD) modulation with variant CD80-Fc fusion proteins was assessed by measuring tumor-reactive T cells in the spleen using IFNγ ELIspot. Single-cell suspensions were generated from dissociated spleens taken at Day 9 after the first dose of CD80-Fc. Splenocytes were incubated with irradiated tumor cells overnight at 37° C., and the number of IFNγ-producing spots were measured using the IFNγ ELIspot Kit (BD Biosciences #551083).
Cytotoxic CD8^+ T cells are responsible for killing cancer cells and the measurement of CD8^+ T cells that have infiltrated tumors commonly correlates with efficacy for immune-oncology therapies. For all in vivo studies, tumors were collected ˜1 week after the first dose and dissociated by mincing, followed by incubation in an enzymatic digestion cocktail and homogenization. The resulting cell suspension was filtered and washed, and single cells were stained with antibodies to CD45, CD8, and a viability dye to detect tumor-infiltrating lymphocytes (TILs) by flow cytometry. Data were acquired on a BD LSRFortessa flow cytometer or a Cytek Aurora spectral flow cytometer. Table 31 and FIG. 18 show the amount of tumor-infiltrating CD8+ T cells expressed as a percentage of total immune cells (CD45+). Each value is the average of n=4 mice per group. Treatment with all variant CD80-Fc fusion proteins led to increase in CD8+ TILs in various tumor models.

[4] = tested on: Jurkat-IL-2-Luc reporter cells; experiment: Jurkat-IL-2-Luc and HCT116-CD64 reporter co-stimulation assay; assay type: cell-based, human; conditions: for EC50: Table 17, 20 ng/ml CDH3×CD3 bispecific, n=2
Description: A T cell co-stimulation assay was designed based on T Cell Activation Bioassay (IL-2) Kit from Promega (Product #J1631). The assay consisted of a genetically engineered Jurkat T cell line that expresses luciferase reporter driven by an IL-2 promoter. Co-engagement of T cell antigen receptor (TCR/CD3) and CD28 co-stimulatory receptor induces activation of T cells and downstream intracellular signaling pathways that in turn regulate the expression of luciferase reporter. As described above, HCT116 human colon cancer cell line was used for TCR engagement using the CDH3×CD3 bispecific and genetically engineered by lentiviral transduction to express human FCγRI.
A 96 well culture plate was seeded with HCT116 parental or HCT116-CD64 cells at 40,000 cells per well in 100 μL RPMI with 10% HI FBS and grown overnight at 37° C. in CO2 incubator. To each well, Jurkat reporter cells (100,000 per well) and 10 μL of the CDH3×CD3 bispecific (8 ng/ml final concentration) were added. 10 μL of serial dilutions of variant CD80-Fc fusion proteins with concentrations ranging from 0-1000 ng/ml (final concentrations per well) was added with appropriate controls. Assay plates were incubated for 6 hours at 37° C. in CO2 incubator for before harvesting culture supernatants and transferring to new plates. Following equilibration, 80 μL of BioGlo luminescence reagent (BioGlo Luciferase assay kit, Promega, G7940) was added into each well. Plates were incubated for 5 minutes before reading luminescence on the EnSight™ plate reader (PerkinElmer).
Jurkat is an immortalized human T cell line, and the Jurkat IL-2-reporter assay assesses the CD28-mediated signaling resulting in activation of the IL-2 promoter. The activity of CD80-Fc fusion proteins was measured using the co-culture HCT116-CD64-Jurkat IL-2 reporter assay, as described in Example 2, but using 20 ng/ml CDH3×CD3 bispecific.

[5] = Pharmacokinetics in cynomolgus monkeys; assay type: in vivo; conditions: cynomolgus monkey
Experimental: PK of variant CD80-Fc fusion proteins was assessed in non-human primates. […] A ligand binding assay using the Gyrolab Immunoassay platform was used to quantitate CD80-Fc molecules in cynomolgus monkey serum following dose administration. CD80-Fc constructs were captured onto the Gyrolab Bioaffy CD using a biotinylated monoclonal anti-human CD80 antibody (Thermo Fisher Cat #13-0809-82). Bound CD80-Fc constructs were detected using a mouse anti-human Fc antibody (SouthernBiotech Cat #9040-01) that was labeled with Alexa Fluor 647. Sample concentrations were determined by interpolation from a calibration curve that were fit using a 5-parameter logistic regression model. The range of quantitation of the assay was 100-15000 ng/ml in 100% serum. […] AUC (Area Under the Curve); Cmax (Maximum Concentration observed); Tmax (Time of Maximum concentration observed)

| EC50 [4] [nM] | Substance | DSC Tm1 ([1]; PBS) [°C] | AC-SINS Score ([2]; Table 6) | Number of tumor-free mice ([3]; 0.3 mg/kg) | Day 18 tumor volume ([3]; 0.3 mg/kg IV, Day 0 and 3) [mm^3] | % tumor growth inhibition ([3]; 0.3 mg/kg) [%] | Number of tumor-free mice ([3]; 1 mg/kg) | Day 18 tumor volume ([3]; 1 mg/kg IV, Day 0 and 3) [mm^3] | % tumor growth inhibition ([3]; 1 mg/kg) [%] | Number of tumor-free mice ([3]; 3 mg/kg) | Day 18 tumor volume ([3]; 3 mg/kg IV, Day 0, 3 and 6) [mm^3] | % tumor growth inhibition ([3]; 3 mg/kg) [%] | # IFNγ-producing spots (splenic tumor-reactive T cells) ([3]; 3 mg/kg) | CD8^+ T cell infiltrates (% CD45) ([3]; 3 mg/kg) | AUC ([5]; 3 mpk IV) [µg·h/mL] | Cmax ([5]; 3 mpk IV) [µg/mL] | Tmax ([5]; 3 mpk IV) [min] | AUC ([5]; 15 mpk IV) [µg·h/mL] | Cmax ([5]; 15 mpk IV) [µg/mL] | Tmax ([5]; 15 mpk IV) [min] | also measured |
| --- | --- | --- | --- | --- | --- | --- | --- | --- | --- | --- | --- | --- | --- | --- | --- | --- | --- | --- | --- | --- | --- |
| – | CD80-D90Q-Fc: variant CD80 ECD (D90Q) fused to human IgG1 Fc | 59.83 ± 0.08 | 0 | 4/10 | 248.2 ± 126.1 | 81.4 | 4/10 | 157.6 ± 64.2 | 89.6 | 8/10 | 72.0 ± 41.6 | 97.1 | 334.75 | 24.2 | – | – | – | – | – | – | – |
| 0.047 ± 0.004 | CD80-K89D-D90K-T28V-T57V-Fc: non-cysteine stabilized variant CD80-Fc fusion protein (K89D, D90K, T28V, T57V) | 63.70 ± 0.07 | – | – | – | – | – | – | – | – | – | – | – | – | – | – | – | – | – | – | DSC Tm1 ([1]; Glu pH 4.5): 65.11 ± 0.23 °C; DSC Tm1 ([1]; His pH 5.8): 68.57 ± 0.74 °C; DSC Tm1 ([1]; Tris pH 7.5): 66.94 ± 1.6 °C; AC-SINS Score ([2]; Table 7): −1 |
| 0.27 ± 0.044 | CD80-K89Q-D90Q-E23C-A26C-Fc: disulfide stabilized variant CD80-Fc fusion protein (K89Q, D90Q, E23C, A26C) | 67.28 ± 0.2 | −1 | – | – | – | – | – | – | – | – | – | – | – | 3680 | 107 | 4.98 | 27800 | 627 | 4.98 | AUC fold-increase over WT ([5]; 3 mpk IV): 1.48; AUC fold-increase over WT ([5]; 15 mpk IV): 2.00; AUC ([5]; 50 mpk IV): 72200 µg·h/mL; AUC fold-increase over WT ([5]; 50 mpk IV): 1.95; Cmax ([5]; 50 mpk IV): 1790 µg/mL; Tmax ([5]; 50 mpk IV): 4.98 min |
| – | CD80-K89Q-D90Q-Fc: variant CD80 ECD (K89Q, D90Q) fused to human IgG1 Fc | 59.67 ± 0.10 | 0 | 2/10 | 743.2 ± 159.5 | 37.4 | 3/10 | 192.6 ± 89.3 | 86.1 | 8/10 | 43.2 ± 21.8 | 99.8 | 152.17 | 36.7 | 1230 | 89.4 | 4.98 | 12100 | 570 | 4.98 | AUC fold-increase over WT ([5]; 3 mpk IV): 0.50; AUC fold-increase over WT ([5]; 15 mpk IV): 0.87; AUC ([5]; 50 mpk IV): 27300 µg·h/mL; AUC fold-increase over WT ([5]; 50 mpk IV): 0.74; Cmax ([5]; 50 mpk IV): 1420 µg/mL; Tmax ([5]; 50 mpk IV): 4.98 min; enhanced co-stimulation compared to CD80-WT-Fc [4]: about 4 fold |
| 0.58 ± 0.074 | CD80-WT-Fc: wild-type human CD80 extracellular domain fused to human IgG1 Fc (C220S) [reference compound] | 59.52 ± 0.07 | 0 | 5/10 | 199.0 ± 114.0 | 85.6 | 5/10 | 79.6 ± 25.5 | 96.2 | 6/7 | 73.0 ± 69.0 | 93.7 | 288.5 | 38.6 | 2480 | 90.7 | 4.98 | 13900 | 460 | 4.98 | AUC ([5]; 50 mpk IV): 37000 µg·h/mL; Tmax ([5]; 50 mpk IV): 4.98 min; DSC Tm1 ([1]; Glu pH 4.5): 62.78 ± 0.03 °C; DSC Tm1 ([1]; His pH 5.8): 63.40 ± 0.35 °C; DSC Tm1 ([1]; Tris pH 7.5): 64.77 ± 0.14 °C; AC-SINS Score ([2]; Table 7): 0; # IFNγ-producing spots (splenic tumor-reactive T cells) ([3]; 0.3 mg/kg): 373.67; # IFNγ-producing spots (splenic tumor-reactive T cells) ([3]; 1 mg/kg): 271.08 |
